Here are results for three molecules from US20240245811A1, “ALPHA RA[…] ANALOGUE AND USE THEREOF IN METHODS OF TREATING CCKB RECEPTOR POSITIVE DISEASES” (Paul Scherrer Institut, priority 2020, published 2024).

In data set [1] the test system is A431/CCKBR tumors. The data set can be described thus: SPECT/CT imaging with 111In-PP-F11N after 225Ac-PP-F11N treatment. The data set is classed as in vivo, nude mice. The note with it: 13 MBq i.v., 2 h after injection, tumor-free mice after 45 or 60 kBq 225Ac-PP-F11N. The source says: Image reconstruction and processing is accomplished by using VivoQuant 3.0 Patch1 software.

Data set [2] deals with A431/CCKBR tumors. Put plainly: Biodistribution study in A431/CCKBR xenografted nude mice. The data set is classed as in vivo. How it is done:
(§1) 1, 4, 24, 48 h and 7 days after administration of radiolabeled peptides, mice are sacrificed and the post mortem dissected tumors and organs are weighted and their activity is measured on a gamma counter (Packard Cobra II Auto Gamma, PerkinElmer, Switzerland).

Assay in data set [3]: as above
The data set is classed as in vivo. The note with it: female, CD-1 nude, mouse, iv, total radioactivity; for tissue uptake at 4 h: 4 h post injection; for tissue uptake at 24 h: 24 h post injection; for tissue uptake at 48 h: 48 h post injection; for tissue uptake at 168 h: 7 days post injection. The method, then:
as §1

Data set [4] in a line: Histological (HE) analysis of kidney and stomach after treatment. The data set is classed as in vivo, nude mice. Particulars: 60 and 120 kBq groups, organs dissected between day 34 and 49.
In another data set the test system is A431/CCKBR cells. The data set can be described thus: Cell proliferation assay (CellTiter 96 AQueous). The format is cell-based, human. Particulars: 24 h. How it is done:
Human epidermoid carcinoma A431 stable cell line that overexpress CCKBR, generated as previously described (Aloj et al., J Nucl Med 2004, 45(3), 485-94) can be cultured in DMEM, supplemented with 10% FBS (Bio Concept, Switzerland), 2 mM glutamine and antibiotics (0.1 mg/mL streptomycin, 100 IU penicillin) at 37° C. in a humidified incubator containing 5% CO2.
For the cell proliferation assay, 4×10^3 cells per well are seeded on the 96-well plates.
Cell proliferation can be analyzed using CellTiter 96 AQueous Non-Radioactive Cell Proliferation Kit (Promega AG, Switzerland) according to the manufacturer's instruction. Absorbance of formazan product is measured at 570 nm with a reference of 650 nm using a MicroPlate Reader (PerkinElmer, Switzerland). The absorbance of the control (untreated) cells is set as 100% cell viability. […] The assay is performed in triplicate.

Data set [5] has as its system A431/CCKBR tumors. The data set can be described thus: Therapy study in A431/CCKBR tumor-bearing nude mice. The format is in vivo. The note with it: 30-120 kBq, all groups. How it is done: For the therapy study, nude mice are subcutaneously injected with 5×10^6 A431/CCKBR cells on the left shoulder. […] The control group is injected with 100 μL PBS. Tumor diameters and mice weight are recorded daily during the working days. Tumor volume is calculated by using the formula formula V=(W^2×L)/2 (Faustino-Rocha et al. Lab Anim. 2013, 42(6), 217-224). Nude mice are sacrificed when the tumor volume exceeded 1.5 cm^3. The data are obtained from two sets of experiments including control, 30, 45, 60 kBq and control, 60, 90, 120 kBq treatment groups.
GraphPad Prism 7.00 for Windows was used for all statistical analysis. […] Log-rank (Mantel-Cox) test and Gehan-Breslow-Wilcoxon test are performed to compare different survival curves of treatment groups with the control group. Endpoints are defined as death in survival curves. Values of P<0.05 are considered statistically significant. The results are reported as mean±standard deviation of at least three independent replicates.

The target of a further data set is T1, CCKBR (Homo sapiens, UniProt P32239).
T1 sequence (P32239 1-447): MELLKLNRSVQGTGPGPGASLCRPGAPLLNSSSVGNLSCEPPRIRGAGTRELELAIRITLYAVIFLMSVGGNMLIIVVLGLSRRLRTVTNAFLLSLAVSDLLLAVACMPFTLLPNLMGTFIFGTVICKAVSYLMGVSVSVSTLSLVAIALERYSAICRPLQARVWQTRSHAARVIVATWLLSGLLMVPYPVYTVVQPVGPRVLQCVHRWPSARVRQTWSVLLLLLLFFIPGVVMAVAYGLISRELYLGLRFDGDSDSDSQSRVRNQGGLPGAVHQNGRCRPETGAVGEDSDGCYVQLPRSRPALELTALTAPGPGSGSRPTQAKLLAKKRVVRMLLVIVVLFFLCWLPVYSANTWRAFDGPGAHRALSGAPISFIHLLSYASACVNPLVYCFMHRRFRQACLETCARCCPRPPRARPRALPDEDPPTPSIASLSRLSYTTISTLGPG
Particulars: cited from earlier work.

Setting [6] is: 38 kBq, stomach, read-out: activity in stomach.
Where [7] appears, read: tumor (A431/CCKBR xenograft), 38 kBq, tumor, read-out: tumor uptake.

Read-outs that look alike come from different tables or passages of the source.

With `CCCC[C@H](NC(=O)[C@H](Cc1c[nH]c2ccccc12)NC(=O)CNC(=O)[C@H](Cc1ccc(O)cc1)NC(=O)[C@H](C)NC(=O)[C@@H](CCC(=O)O)NC(=O)[C@@H](CCC(=O)O)NC(=O)[C@@H](CCC(=O)O)NC(=O)[C@@H](CCC(=O)O)NC(=O)[C@@H](CCC(=O)O)NC(=O)[C@@H](CCC(=O)O)NC(=O)CN1CCN(CC(=O)O)CCN(CC(=O)O)CCN(CC(=O)O)CC1)C(=O)N[C@@H](CC(=O)O)C(=O)N[C@@H](Cc1ccccc1)C(N)=O` [^111In-PP-F11N, metal not drawn], the “location of radioactive signals on SPECT/CT” value in the data set with A431/CCKBR tumors [1] is “only detected in the excretion organs including kidneys and bladder”.

With `CCCC[C@H](NC(=O)[C@H](Cc1c[nH]c2ccccc12)NC(=O)CNC(=O)[C@H](Cc1ccc(O)cc1)NC(=O)[C@H](C)NC(=O)[C@@H](CCC(=O)O)NC(=O)[C@@H](CCC(=O)O)NC(=O)[C@@H](CCC(=O)O)NC(=O)[C@@H](CCC(=O)O)NC(=O)[C@@H](CCC(=O)O)NC(=O)[C@@H](CCC(=O)O)NC(=O)CN1CCN(CC(=O)O)CCN(CC(=O)O)CCN(CC(=O)O)CC1)C(=O)N[C@@H](CC(=O)O)C(=O)N[C@@H](Cc1ccccc1)C(N)=O` [^225Ac-PP-F11N, metal not drawn], in the data set on A431/CCKBR tumors [2] (at analyzed time points), the “tumor-to-kidney and tumor-to-stomach ratios” value is on record as “excellent”. The “body or organ weights, general health or anatomy” value in the data set with A431/CCKBR tumors [2] (biodistribution study, 38 kBq) is reported as “no significant differences in body or organ weights, general health or anatomy”. The “activity level in the kidney” value stood at 1.2% with A431/CCKBR tumors [2] (kidney, 1 week post injection) and 3.8% in the data set with A431/CCKBR tumors [2] (kidney, 48 h post injection). Besides, the “decrease in accumulation in the kidney” value with A431/CCKBR tumors [2] (kidney, within the first four hours) is on record as 50%. Moreover, the tissue uptake at 4 h in data set [3] (38 kBq, kidney, read-out: accumulation in the kidney) worked out at 4.2 %ID/g; in data set [3] (setting [6]), 1.3 %ID/g; in data set [3] (setting [7]), 11.2 %ID/g. For the same molecule, the tissue uptake at 1 h in data set [3] (38 kBq, kidney, start of the first four hours (1 h post injection), read-out: accumulation in the kidney) came to 8.1 %ID/g; in data set [3] (38 kBq, stomach, 1 h post injection, read-out: activity in stomach), 1.5 %ID/g; in data set [3] (tumor (A431/CCKBR xenograft), tumor, 1 h post injection, 38 kBq i.v., read-out: tumor uptake), 13 %ID/g. Besides, in data set [3] (38 kBq, liver and bone, all analyzed time points, read-out: non-specific uptake in the liver and bone), the tissue uptake was below 2 %ID/g. For the same molecule, the tissue uptake at 24 h was 1.2 %ID/g in data set [3] (setting [6]) and 7.2 %ID/g in data set [3] (setting [7]). For the same molecule, the values for the tissue uptake at 48 h in data set [3] (setting [6]) and in data set [3] (setting [7]) were 0.8 %ID/g and 5.7 %ID/g, respectively. Besides, the results for the tissue uptake at 168 h in data set [3] (setting [6]) and in data set [3] (setting [7]) were 0.3 %ID/g and 4.5 %ID/g, respectively. Also, in data set [4], the “HE stains of kidney and stomach versus control” value is recorded as “no signs of acute radiation toxicity”. Also, in the data set on A431/CCKBR cells, the “activity level at maximum cytotoxic effect (0% of cell viability)” value is given as 100 kBq/mL. Also, the “body weight and cytotoxicity symptoms during the treatment” value with A431/CCKBR tumors [5] is “no body weight losses or other cytotoxicity symptoms”.

In the case of `CCCC[C@H](NC(=O)[C@H](Cc1c[nH]c2ccccc12)NC(=O)CNC(=O)[C@H](Cc1ccc(O)cc1)NC(=O)[C@H](C)NC(=O)[C@@H](CCC(=O)O)NC(=O)[C@@H](CCC(=O)O)NC(=O)[C@@H](CCC(=O)O)NC(=O)[C@@H](CCC(=O)O)NC(=O)[C@@H](CCC(=O)O)NC(=O)[C@@H](CCC(=O)O)NC(=O)CN1CCN(CC(=O)O)CCN(CC(=O)O)CCN(CC(=O)O)CC1)C(=O)N[C@@H](CC(=O)O)C(=O)N[C@@H](Cc1ccccc1)C(N)=O` [metal not drawn], in the data set with CCKBR (WO 2015/067473 A1), the “tumor uptake and kidney accumulation” value is listed as “good tumor uptake as well as low accumulation in the kidneys”. Besides, the “accumulation in healthy tissues” value with CCKBR (recent studies (Sauter 2019, Rottenburger 2020)) is “can accumulate in healthy tissues (i.e. in the stomach)”.
